In patent US20170360893A1 (Merck Sharp & Dohme, published 2017):
*1 amine or outer side, *2 acyl side, *3 side chain or, on linkers, in order; H or OH if unused. Where no end group is shown, it is not given here. Side-chain parts run from the residue outwards. [ ]: non-standard residue; d: D form. The star is where a group is joined. γGlu = O=C(O)[C@H](CCC(=O)[*:2])N[*:1]; Palmitoyl = CCCCCCCCCCCCCCCC(=O)*; Nle = CCCC[C@H](N)C(=O)O; Aib = CC(C)(N)C(=O)O

How the values were obtained:
[1] = target: human glucagon-like peptide 1 receptor (human, UniProt P43220 24-463); assay: cell-based or functional assay
[2] = target: human glucagon receptor (human, UniProt P47871 26-477); assay: cell-based or functional assay
Sequence of human glucagon receptor (P47871 26-477): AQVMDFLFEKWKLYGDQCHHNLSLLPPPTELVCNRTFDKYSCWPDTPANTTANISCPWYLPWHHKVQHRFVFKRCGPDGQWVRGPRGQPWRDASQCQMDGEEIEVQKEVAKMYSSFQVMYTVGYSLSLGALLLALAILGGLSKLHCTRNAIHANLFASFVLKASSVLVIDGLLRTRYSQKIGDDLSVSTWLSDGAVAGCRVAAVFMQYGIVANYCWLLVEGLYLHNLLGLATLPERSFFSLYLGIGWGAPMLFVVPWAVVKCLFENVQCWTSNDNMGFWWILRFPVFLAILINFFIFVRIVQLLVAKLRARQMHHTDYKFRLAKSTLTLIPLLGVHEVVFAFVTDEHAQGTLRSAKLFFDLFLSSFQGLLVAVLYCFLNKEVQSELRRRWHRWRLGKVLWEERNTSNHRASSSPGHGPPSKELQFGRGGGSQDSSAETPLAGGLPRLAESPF

H[Aib]VGTFTSDK([γGlu-γGlu-Palmitoyl])SKYLD[Aib]RAAQDFVQWL[Nle]DT-NH2 [Co-agonist Peptide 4]
GLPR1 EC50 (nM) human; cAMP production (HitHunter cAMP XS) in cells expressing human GLP-1R, 20% human serum [1]: 0.1 nM | GCGR EC50 (nM) human; cAMP production (HitHunter cAMP XS) in cells expressing human GCGR, 20% human serum [2]: 0.89 nM
